This note sets out measurements from article doi:10.1101/2022.06.01.494398, “Herpes simplex virus 1 protein pUL21 stimulates cellular ceramide transport by activating CERT” (bioRxiv, 2022).

First the molecules themselves.
B3: pUL21-H6 (natural protein)
chain: MELSYATTMHYRDVVFYVTTDRNRAYFVCGGCVYSVGRPCASQPGEIAKFGLVVRGTGPDDRVVANYVRSELRQRGLQDVRPIGEDEVFLDSVCLLNPNVSSELDVINTNDVEVLDECLAEYCTSLRTSPGVLISGLRVRAQDRIIELFEHPTIVNVSSHFVYTPSPYVFALAQAHLPRLPSSLEALVSGLFDGIPAPRQPLDAHNPRTDVVITGRRAPRPIAGSGAGSGGAGAKRATVSEFVQVKHIDRVGPAGVSPAPPPNNTDSSSLVPGAQDSAPPGPTLRELWWVFYAADRALEEPRADSGLTREEVRAVRGFREQAWKLFGSAGAPRAFIGAALGLSPLQKLAVYYYIIHRERRLSPFPALVRLVGRYTQRHGLYVPRPDDPVLADAINGLFRDALAAGTTAEQLLMFDLLPPKDVPVGSDVQADSTALLRFIESQRLAVPGGVISPEHVAYLGAFLSVLYAGRGRMSAATHTARLTGVTSLVLAVGDVDRLSAFDRGAAGAASRTRAAGYLDVLLTVRLARSQHGQSV

For data set [1], the target named is B3. Briefly: ITC; hyperphosphorylated CERTL; representative titration. A general note: Isothermal titration calorimetry measures the heat released or taken up as one component is titrated into another.
Data set [2] concerns the target B3. Briefly: ITC; hyperphosphorylated CERTL; mean of 3.
Data set [3] deals with the molecule itself. Kind of data set: SEC-MALS; Superose 6 increase 10/300 GL, 20 mM Tris pH 8.5, 500 mM NaCl, 0.5 mM TCEP; samples injected at 2 mg/mL. A general note: Size exclusion chromatography separates by hydrodynamic size, large species first.
For data set [4], the target named is T1, pUL21-H6 (HSV-1, UniProt P10205 1-535).
T1 construct: HSV-1 tegument protein pUL21; The tag's end is read from the name pUL21-H6; also called wild-type pUL21; full-length pUL21; source: E. coli T7 Express lysY/Iq, purified (Ni-NTA, SEC); not shown: H6, C-terminal, kept
T1 sequence: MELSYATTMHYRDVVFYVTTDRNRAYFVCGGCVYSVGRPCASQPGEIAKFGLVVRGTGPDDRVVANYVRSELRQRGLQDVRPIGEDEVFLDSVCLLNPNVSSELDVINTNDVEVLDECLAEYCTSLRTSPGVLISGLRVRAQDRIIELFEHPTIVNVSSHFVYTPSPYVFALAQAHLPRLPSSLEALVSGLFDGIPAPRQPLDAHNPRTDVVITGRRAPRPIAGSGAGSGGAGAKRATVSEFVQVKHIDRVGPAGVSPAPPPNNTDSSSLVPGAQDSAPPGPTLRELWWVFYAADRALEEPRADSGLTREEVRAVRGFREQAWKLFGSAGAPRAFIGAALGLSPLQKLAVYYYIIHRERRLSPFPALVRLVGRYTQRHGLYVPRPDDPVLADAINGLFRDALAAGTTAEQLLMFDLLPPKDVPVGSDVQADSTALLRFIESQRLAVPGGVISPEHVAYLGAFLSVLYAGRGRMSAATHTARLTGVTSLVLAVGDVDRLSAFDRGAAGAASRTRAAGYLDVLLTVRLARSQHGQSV
Briefly: ITC; 25°C, 20 mM Tris pH 8.5, 500 mM NaCl, 0.5 mM TCEP; CERTL forms or miniCERTL (about 190-380 μM) titrated into pUL21 forms (about 20-33 μM); one-site binding model. To be noted: both partners purified.

Data set [5] concerns the target T2, StrepII-CERTL^S132A (human, UniProt Q9Y5P4-1 1-624, S132A).
T2 sequence: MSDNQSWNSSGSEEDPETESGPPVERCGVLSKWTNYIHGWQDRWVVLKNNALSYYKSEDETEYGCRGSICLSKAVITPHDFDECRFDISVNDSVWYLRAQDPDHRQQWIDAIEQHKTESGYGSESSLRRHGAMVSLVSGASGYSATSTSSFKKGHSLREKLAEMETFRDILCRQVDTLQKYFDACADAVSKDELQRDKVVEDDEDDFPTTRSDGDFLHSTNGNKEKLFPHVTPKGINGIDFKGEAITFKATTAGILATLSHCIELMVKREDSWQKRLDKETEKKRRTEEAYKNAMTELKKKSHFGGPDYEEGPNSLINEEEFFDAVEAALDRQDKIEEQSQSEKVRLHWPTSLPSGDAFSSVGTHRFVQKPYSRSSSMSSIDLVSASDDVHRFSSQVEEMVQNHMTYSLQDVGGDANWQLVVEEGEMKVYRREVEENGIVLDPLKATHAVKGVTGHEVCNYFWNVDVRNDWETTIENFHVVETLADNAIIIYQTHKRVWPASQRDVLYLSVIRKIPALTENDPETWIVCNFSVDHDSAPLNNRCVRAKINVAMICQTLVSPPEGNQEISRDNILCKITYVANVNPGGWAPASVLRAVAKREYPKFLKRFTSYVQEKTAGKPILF
Kind of data set: ITC; representative titration.

Data set [6] has as its target T2, StrepII-CERTL^S132A. Kind of data set: ITC; mean of 2.
Data set [7] deals with T3, H6-pUL21C (HSV-1, UniProt P10205 275-535).
T3 chain: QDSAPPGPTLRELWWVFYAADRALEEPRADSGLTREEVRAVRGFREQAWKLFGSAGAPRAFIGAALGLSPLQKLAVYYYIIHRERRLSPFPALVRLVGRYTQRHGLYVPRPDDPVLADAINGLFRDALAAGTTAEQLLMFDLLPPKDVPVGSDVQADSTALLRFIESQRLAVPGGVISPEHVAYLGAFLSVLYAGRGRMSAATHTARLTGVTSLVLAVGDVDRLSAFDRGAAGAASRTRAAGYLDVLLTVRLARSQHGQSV
Briefly: ITC; representative titration.

Data set [8] deals with B3. Kind of data set: ITC; representative titration.
Data set [9] deals with B3. Kind of data set: ITC; mean of 6.
Data set [10] deals with T4, H6-pUL21C (HSV-1, UniProt P10205 275-535).
T4 construct: HSV-1 pUL21 C-terminal domain, amino acids 275-535; In pOPTH; N-terminal MAH6QD and C-terminal HGQSV are missing from the crystal structure 5ED7 and were modelled; also called C-terminal domain of pUL21; source: E. coli T7 Express lysY/Iq, purified (Ni-NTA, SEC); not shown: MAH6, N-terminal, kept
T4 sequence: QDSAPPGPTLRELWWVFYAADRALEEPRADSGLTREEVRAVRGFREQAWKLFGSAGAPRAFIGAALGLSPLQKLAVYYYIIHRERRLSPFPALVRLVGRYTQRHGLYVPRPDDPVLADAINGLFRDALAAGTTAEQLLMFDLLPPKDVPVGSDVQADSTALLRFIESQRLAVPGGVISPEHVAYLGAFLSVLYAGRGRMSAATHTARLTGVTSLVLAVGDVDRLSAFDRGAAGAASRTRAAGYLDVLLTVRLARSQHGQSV
Briefly: ITC; 25°C, 20 mM Tris pH 8.5, 500 mM NaCl, 0.5 mM TCEP; CERTL forms or miniCERTL (about 190-380 μM) titrated into pUL21 forms (about 20-33 μM); one-site binding model. As to conditions: both partners purified.

The next data set deals with T5, pUL21^V382E-H6 (HSV-1, UniProt P10205 1-535, V382E).
T5 construct: HSV-1 tegument protein pUL21 with V382E; The tag's end is read from the name pUL21^V382E-H6; also called H6-pUL21^V382E; V382E pUL21-H6; source: E. coli T7 Express lysY/Iq, purified (Ni-NTA, SEC); not shown: H6, C-terminal, kept
T5 sequence: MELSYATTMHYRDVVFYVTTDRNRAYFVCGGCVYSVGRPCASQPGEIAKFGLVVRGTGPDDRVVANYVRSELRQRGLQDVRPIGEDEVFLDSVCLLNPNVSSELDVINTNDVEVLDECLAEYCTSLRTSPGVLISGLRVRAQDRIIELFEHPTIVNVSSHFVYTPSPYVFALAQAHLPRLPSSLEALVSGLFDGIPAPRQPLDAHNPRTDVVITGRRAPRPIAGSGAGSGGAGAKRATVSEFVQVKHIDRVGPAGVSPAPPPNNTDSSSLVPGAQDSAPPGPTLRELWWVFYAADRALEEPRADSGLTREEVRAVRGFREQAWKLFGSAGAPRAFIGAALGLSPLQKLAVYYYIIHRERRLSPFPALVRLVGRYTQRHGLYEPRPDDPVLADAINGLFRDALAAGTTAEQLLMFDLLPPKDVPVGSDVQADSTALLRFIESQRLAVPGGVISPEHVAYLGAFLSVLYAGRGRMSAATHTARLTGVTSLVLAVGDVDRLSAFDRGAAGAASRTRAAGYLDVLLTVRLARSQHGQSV
Described as above. To be noted: both partners purified.

B1: StrepII-CERTL^P (hyperphosphorylated StrepII-tagged CERTL) (natural protein, human, UniProt Q9Y5P4-1 1-624, looked up)
chain: MSDNQSWNSSGSEEDPETESGPPVERCGVLSKWTNYIHGWQDRWVVLKNNALSYYKSEDETEYGCRGSICLSKAVITPHDFDECRFDISVNDSVWYLRAQDPDHRQQWIDAIEQHKTESGYGSESSLRRHGSMVSLVSGASGYSATSTSSFKKGHSLREKLAEMETFRDILCRQVDTLQKYFDACADAVSKDELQRDKVVEDDEDDFPTTRSDGDFLHSTNGNKEKLFPHVTPKGINGIDFKGEAITFKATTAGILATLSHCIELMVKREDSWQKRLDKETEKKRRTEEAYKNAMTELKKKSHFGGPDYEEGPNSLINEEEFFDAVEAALDRQDKIEEQSQSEKVRLHWPTSLPSGDAFSSVGTHRFVQKPYSRSSSMSSIDLVSASDDVHRFSSQVEEMVQNHMTYSLQDVGGDANWQLVVEEGEMKVYRREVEENGIVLDPLKATHAVKGVTGHEVCNYFWNVDVRNDWETTIENFHVVETLADNAIIIYQTHKRVWPASQRDVLYLSVIRKIPALTENDPETWIVCNFSVDHDSAPLNNRCVRAKINVAMICQTLVSPPEGNQEISRDNILCKITYVANVNPGGWAPASVLRAVAKREYPKFLKRFTSYVQEKTAGKPILF
modifications: hyperphosphorylated; sites not given
notes: human CERTL, synthetic gene, UniProt Q9Y5P4-1; Observed mass by SEC-MALS approaches that of a trimer; not shown: StrepII, N-terminal, kept
Broadly, the Kd is the free concentration of one partner at which half of the binding sites on the other are occupied at equilibrium, for simple one-to-one binding. The stoichiometry N is a count of units in the complex or per binding partner. On to B1, for which the results for the Kd in the data set with pUL21-H6 [1] and in the data set with pUL21-H6 [2] were 554 nM and 773 nM, respectively. Further, the “stoichiometry N” value in data set [3] was around 3; with pUL21-H6 [4], 0.74.

B2: StrepII-CERTL^S132A (natural protein, human, UniProt Q9Y5P4-1 1-624, looked up)
chain: MSDNQSWNSSGSEEDPETESGPPVERCGVLSKWTNYIHGWQDRWVVLKNNALSYYKSEDETEYGCRGSICLSKAVITPHDFDECRFDISVNDSVWYLRAQDPDHRQQWIDAIEQHKTESGYGSESSLRRHGAMVSLVSGASGYSATSTSSFKKGHSLREKLAEMETFRDILCRQVDTLQKYFDACADAVSKDELQRDKVVEDDEDDFPTTRSDGDFLHSTNGNKEKLFPHVTPKGINGIDFKGEAITFKATTAGILATLSHCIELMVKREDSWQKRLDKETEKKRRTEEAYKNAMTELKKKSHFGGPDYEEGPNSLINEEEFFDAVEAALDRQDKIEEQSQSEKVRLHWPTSLPSGDAFSSVGTHRFVQKPYSRSSSMSSIDLVSASDDVHRFSSQVEEMVQNHMTYSLQDVGGDANWQLVVEEGEMKVYRREVEENGIVLDPLKATHAVKGVTGHEVCNYFWNVDVRNDWETTIENFHVVETLADNAIIIYQTHKRVWPASQRDVLYLSVIRKIPALTENDPETWIVCNFSVDHDSAPLNNRCVRAKINVAMICQTLVSPPEGNQEISRDNILCKITYVANVNPGGWAPASVLRAVAKREYPKFLKRFTSYVQEKTAGKPILF
notes: human CERTL, synthetic gene, UniProt Q9Y5P4-1, with S132A; Hypophosphorylated: S132 cannot be phosphorylated to start the phosphorylation cascade of the serine-rich motif; also called constitutively hypophosphorylated form of CERTL; source: stably transfected Freestyle 293F cells, doxycycline-induced, purified (StrepTrap HP, Superose 6 SEC); not shown: StrepII, N-terminal, kept
Regarding B2, the “stoichiometry N” value in data set [3] is around 3; with pUL21-H6 [4] it was 1.
B3: the figures for the Kd with StrepII-CERTL^S132A [5] and in the data set with StrepII-CERTL^S132A [6] were 460 nM and 642 nM, respectively.

B4: H6-miniCERTL (domain or fragment, human, UniProt Q9Y5P4-1 20-131, looked up)
chain: SGPPVERCGVLSKWTNYIHGWQDRWVVLKNNALSYYKSEDETEYGCRGSICLSKAVITPHDFDECRFDISVNDSVWYLRAQDPDHRQQWIDAIEQHKTESGYGSESSLRRHGTSLPSGDAFSSVGTHRFVQKPYSRSSSMSSIDLVSASDDVHRFSSQVEEMVQNHMTYSLQDVGGDANWQLVVEEGEMKVYRREVEENGIVLDPLKATHAVKGVTGHEVCNYFWNVDVRNDWETTIENFHVVETLADNAIIIYQTHKRVWPASQRDVLYLSVIRKIPALTENDPETWIVCNFSVDHDSAPLNNRCVRAKINVAMICQTLVSPPEGNQEISRDNILCKITYVANVNPGGWAPASVLRAVAKREYPKFLKRFTSYVQEKTAGKPILF
notes: human CERTL (UniProt Q9Y5P4-1), residues 20-131: PH domain without its first 19 residues and the start of the middle region; human CERTL (UniProt Q9Y5P4-1), residues 351-624: the end of the middle region and the STARTL domain; joined directly to residue 131 (MR residues 132-350 left out); Cloned into pOPTH, which encodes the N-terminal MAH6 tag; source: E. coli T7 Express lysY/Iq, purified …
In the case of B4, the Kd in the data set with H6-pUL21C [7] came out at 3150 nM; with pUL21-H6 [8] it was 879 nM; with pUL21-H6 [9], 1040 nM; in the data set with H6-pUL21C [10], 4300 nM. Further, the “fold reduction of binding affinity against wild-type pUL21” value with pUL21^V382E-H6 was around 8 fold.
